System: Escherichia coli TOP10
Test: shrunken log2 fold change of peptide-encoding DNA abundance (4.5 h post-induction vs induction); higher = less antimicrobial activity (less host growth inhibition)
Settings: time post-induction: 4.5 h; library: site-saturation at positions 5, 18, 19, 20
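Note: peptides expressed intracellularly from a pBAD plasmid library in pooled LB shake-flask culture, induced with 0.3% L-arabinose, DNA abundance read by NGS, three biological replicates, DESeq2 with apeglm shrinkage.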

Sequence	shrunken log2 fold change
RRIRYRPPRLPRPRPRPGVTPRP	-0.048
RRIRARPPRLPRPRPRPFAQPRP	0.213
RRIRCRPPRLPRPRPRPGRMPRP	0.141
RRIRTRPPRLPRPRPRPEMYPRP	-0.012
RRIRTRPPRLPRPRPRPNRQPRP	0.0749
RRIRMRPPRLPRPRPRPVDIPRP	-0.0631
RRIRNRPPRLPRPRPRPLFFPRP	-0.217
RRIRYRPPRLPRPRPRPPCHPRP	-0.285
RRIRLRPPRLPRPRPRPDIDPRP	0.0249
RRIRGRPPRLPRPRPRPCTGPRP	0.11
RRIRGRPPRLPRPRPRPCPAPRP	0.383
RRIRCRPPRLPRPRPRPNCGPRP	-0.281
RRIRIRPPRLPRPRPRPTRQPRP	-0.00609
RRIRQRPPRLPRPRPRPSDSPRP	-0.0885
RRIRNRPPRLPRPRPRPFHMPRP	-0.458
RRIRCRPPRLPRPRPRPSSWPRP	-0.251
RRIRTRPPRLPRPRPRPPVPPRP	0.139
RRIRGRPPRLPRPRPRPLSNPRP	0.416
RRIRPRPPRLPRPRPRPYYLPRP	-0.745
RRIRNRPPRLPRPRPRPLYPPRP	-0.586
RRIRMRPPRLPRPRPRPTADPRP	2.84
RRIRDRPPRLPRPRPRPFKDPRP	-0.00443
RRIRHRPPRLPRPRPRPGGDPRP	0.0994
RRIRERPPRLPRPRPRPVSLPRP	-0.013
RRIRLRPPRLPRPRPRPMWMPRP	-0.00116

Sequence	shrunken log2 fold change
RRIRVRPPRLPRPRPRPGKKPRP	0.0628
RRIRCRPPRLPRPRPRPWWHPRP	-0.523
RRIRGRPPRLPRPRPRPHMEPRP	0.0707
RRIRSRPPRLPRPRPRPYKDPRP	-0.716
RRIRQRPPRLPRPRPRPHQFPRP	0.0486
RRIRQRPPRLPRPRPRPDSCPRP	0.0169
RRIRHRPPRLPRPRPRPSHIPRP	-0.307
RRIRHRPPRLPRPRPRPVLYPRP	-0.317
RRIRMRPPRLPRPRPRPSGMPRP	0.03
RRIRNRPPRLPRPRPRPFDVPRP	-0.0429
RRIRPRPPRLPRPRPRPRQCPRP	0.126
RRIRIRPPRLPRPRPRPRCMPRP	-0.284
RRIRKRPPRLPRPRPRPIENPRP	-0.0721
RRIRARPPRLPRPRPRPVERPRP	0.732
RRIRNRPPRLPRPRPRPLEIPRP	0.000705
RRIRGRPPRLPRPRPRPGLSPRP	1.12
RRIRFRPPRLPRPRPRPPLTPRP	0.354
RRIRNRPPRLPRPRPRPFKLPRP	-0.155
RRIRKRPPRLPRPRPRPWTLPRP	0.00115
RRIRDRPPRLPRPRPRPANCPRP	-0.00155
RRIRWRPPRLPRPRPRPCCTPRP	0.0894
RRIRCRPPRLPRPRPRPISDPRP	-0.237
RRIRARPPRLPRPRPRPMYMPRP	-0.354
RRIRQRPPRLPRPRPRPQFVPRP	-0.173
RRIRYRPPRLPRPRPRPSFVPRP	-0.714

Sequence	shrunken log2 fold change
RRIRIRPPRLPRPRPRPLVHPRP	-0.266
RRIRVRPPRLPRPRPRPVAMPRP	0.0876
RRIRKRPPRLPRPRPRPSGDPRP	0.485
RRIRNRPPRLPRPRPRPSKIPRP	-0.846
RRIRHRPPRLPRPRPRPVEVPRP	0.0201
RRIRFRPPRLPRPRPRPERCPRP	0.104
RRIRSRPPRLPRPRPRPVCGPRP	0.548
RRIRGRPPRLPRPRPRPCKAPRP	0.377
RRIRMRPPRLPRPRPRPMSAPRP	0.333
RRIRYRPPRLPRPRPRPGAIPRP	-0.284
RRIRWRPPRLPRPRPRPEDEPRP	0.0692
RRIRCRPPRLPRPRPRPYTKPRP	-0.321
RRIRHRPPRLPRPRPRPGDHPRP	-0.00776
RRIRERPPRLPRPRPRPAIPPRP	-0.737
RRIRARPPRLPRPRPRPIRYPRP	-0.263
RRIRFRPPRLPRPRPRPYPCPRP	-0.0436
RRIRIRPPRLPRPRPRPQYMPRP	-1.02
RRIRFRPPRLPRPRPRPFLLPRP	-0.696
RRIRWRPPRLPRPRPRPTFSPRP	-0.0911
RRIRERPPRLPRPRPRPHAQPRP	-0.0243
RRIRKRPPRLPRPRPRPLMHPRP	0.0704
RRIRKRPPRLPRPRPRPCWEPRP	0.0666
RRIRYRPPRLPRPRPRPNAEPRP	-0.122
RRIRERPPRLPRPRPRPNYSPRP	-0.63
RRIRSRPPRLPRPRPRPNQVPRP	-0.0256

— the supplement of paper PMC9112550, “Optimization of the antimicrobial peptide Bac7 by deep mutational scanning” (BMC Biology, 2022)
